According to patent US20240158497A1 (published 2024):

T1: extracellular domain of human LEPR, GPI-anchored, on HEK293/hLEPR-GPI cells (human, UniProt P48357 22-839, GPI anchor at the C-terminus ; GPI anchor at the C-terminus, added through the carboxypeptidase M signal peptide. The N-terminal myc-myc tag is not written.)
T1 sequence: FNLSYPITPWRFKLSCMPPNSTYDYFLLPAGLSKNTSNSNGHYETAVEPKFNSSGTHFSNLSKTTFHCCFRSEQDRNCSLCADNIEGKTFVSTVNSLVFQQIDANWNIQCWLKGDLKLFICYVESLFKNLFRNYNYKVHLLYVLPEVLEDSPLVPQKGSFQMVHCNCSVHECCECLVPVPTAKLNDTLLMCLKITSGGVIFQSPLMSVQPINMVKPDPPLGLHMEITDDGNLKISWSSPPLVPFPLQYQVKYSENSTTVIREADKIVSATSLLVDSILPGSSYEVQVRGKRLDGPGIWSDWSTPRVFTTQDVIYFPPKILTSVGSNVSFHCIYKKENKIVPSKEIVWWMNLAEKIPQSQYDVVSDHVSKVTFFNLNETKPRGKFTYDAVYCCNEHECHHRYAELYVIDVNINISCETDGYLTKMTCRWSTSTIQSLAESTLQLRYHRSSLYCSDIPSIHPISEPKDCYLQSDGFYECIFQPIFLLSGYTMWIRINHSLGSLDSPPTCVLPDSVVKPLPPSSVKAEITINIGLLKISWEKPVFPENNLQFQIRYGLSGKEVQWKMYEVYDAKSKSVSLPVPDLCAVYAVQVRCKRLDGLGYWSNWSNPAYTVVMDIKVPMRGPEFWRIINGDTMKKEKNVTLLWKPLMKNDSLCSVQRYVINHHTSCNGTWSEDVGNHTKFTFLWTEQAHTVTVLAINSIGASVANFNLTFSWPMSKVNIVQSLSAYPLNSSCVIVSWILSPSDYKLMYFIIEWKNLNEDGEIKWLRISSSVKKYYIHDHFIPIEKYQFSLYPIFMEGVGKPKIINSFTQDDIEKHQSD

T2: full length human GP130 (L2V natural variant) on HEK293/Stat3-luc/gp130-2X Sort cells (human, UniProt P40189 23-918)
T2 construct: whole, on cells; Stably over-expressed on HEK293 cells, sorted twice for high expression; also called HEK293/gp130 2X Sort
T2 sequence (looked up): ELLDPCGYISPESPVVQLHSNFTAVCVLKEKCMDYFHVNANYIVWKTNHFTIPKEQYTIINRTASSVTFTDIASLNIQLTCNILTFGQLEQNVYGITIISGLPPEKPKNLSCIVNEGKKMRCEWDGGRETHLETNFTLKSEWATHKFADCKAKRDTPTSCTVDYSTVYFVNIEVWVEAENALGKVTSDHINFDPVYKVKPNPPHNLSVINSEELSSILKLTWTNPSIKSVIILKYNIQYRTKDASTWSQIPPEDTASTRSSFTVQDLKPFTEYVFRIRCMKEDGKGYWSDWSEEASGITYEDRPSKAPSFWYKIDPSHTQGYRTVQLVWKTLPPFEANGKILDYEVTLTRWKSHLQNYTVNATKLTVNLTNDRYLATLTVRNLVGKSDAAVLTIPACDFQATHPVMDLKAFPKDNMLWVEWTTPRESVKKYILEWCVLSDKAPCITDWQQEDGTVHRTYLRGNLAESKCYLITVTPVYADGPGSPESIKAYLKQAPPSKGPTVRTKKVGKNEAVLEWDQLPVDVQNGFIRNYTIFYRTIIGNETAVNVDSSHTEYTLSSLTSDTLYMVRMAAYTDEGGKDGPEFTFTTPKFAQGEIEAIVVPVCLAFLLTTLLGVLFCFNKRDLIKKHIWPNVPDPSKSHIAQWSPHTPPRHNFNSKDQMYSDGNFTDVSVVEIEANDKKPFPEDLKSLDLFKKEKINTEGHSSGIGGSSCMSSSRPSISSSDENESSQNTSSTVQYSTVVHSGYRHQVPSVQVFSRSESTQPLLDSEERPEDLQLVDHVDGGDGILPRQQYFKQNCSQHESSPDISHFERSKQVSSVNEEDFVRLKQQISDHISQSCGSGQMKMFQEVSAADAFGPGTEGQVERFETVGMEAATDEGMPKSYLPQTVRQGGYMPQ


Assays:
[1] = biological target: T1, extracellular domain of human LEPR, …; assay: FACS, 200 nM antibody on HEK293/hLEPR-GPI cells, no Leptin
Method: (§1) For the FACS analysis, 0.5×10^6 cells/well of HEK293 parental cells, HEK293/Stat3-luc/gp130-2 X Sort cells, and HEK293/hLEPR-GPI cells, were incubated with 200 nM of the conventional antibodies against either GP130 or LEPR or with LEPRxGP130 bispecific antibodies, along with isotype control antibodies at 4° C. in PBS (without calcium and magnesium) containing 2% FBS.
(§2) Cells were fixed using BD CytoFix™ (Becton Dickinson, #554655) and analyzed on an IQue® (Intellicyt) Flow Cytometer. Unstained and secondary antibody alone controls were also tested for all cell lines. The results were analyzed using ForeCyt® (IntelliCyt) and FlowJo version 10 softwares to determine the geometric means of fluorescence for viable cells.

[2] = biological target: T1, extracellular domain of human LEPR, …; assay: FACS, 200 nM antibody on HEK293/hLEPR-GPI cells, 1 µM Leptin
Method: as §1, §2

[3] = biological target: T2, full length human GP130 (L2V natural …); assay: FACS, 200 nM antibody on HEK293/gp130 2X Sort cells
Method: as §1, §2

| Binder | Binding Ratio, normalized to unstained sample (FL4-A) [1] [fold] | Binding Ratio, normalized to unstained sample (FL4-A) [2] [fold] | Binding Ratio, normalized to unstained sample (FL4-A) [3] [fold] |
| --- | --- | --- | --- |
| mAb18445 (antibody, V domains shown, Conventional anti-LEPR antibody; also called mAB18445 (anti-LEPR mAb)) VH: QVQLQESGPGLVKPSQTLSLTCTVSGGSISSGGDYWSWIRQLPGKGLEWIGYIYYSGSAYYNPSLKSRGTISIDTSKNQFSLKLTSVTAADTAVYFCVKLRFLEWFLGGWFGPWGQGTLVTVSS VL: not shown | 4710 | 4250 | – |
| mAb18446 (antibody, V domains shown, Conventional anti-LEPR antibody; also called mAB18446 (anti-LEPR mAb)) VH: EVQLVESGGGLVQPGGSLRLSCAASGFTFSNYGMTWVRQAPGKGLEWVSAITGGGGSTYYSNSVKGRFTISRDNSKNTVYLRMNSVRAEDTAVYYCAKYKWNFVDDWGQGTTVTVSS VL: not shown | 7020 | 6390 | – |
| mAb16683 (antibody, V domains shown, Conventional anti-GP130 antibody; also called mAb16683 (anti-GP130 mAb)) VH: QVQLVESGGGLVKPGGSLRLSCAASGFTFSDYYMTWIRQTPGKGLDWVSYISSSGTNKYNADSVKGRFTISRDNAKNSLYLQMNSLRAEDTAVYYCVRDPPWGMDVWGQGTTVTVSS VL: not shown | 21 | – | 235 |
